Measurements as given in the supplement of paper PMC10724198.
± gives the standard deviation of the averaged measurements.

System: Saccharomyces cerevisiae
Test: protein stability index of tFT-peptide fusion (C-terminal peptide) (PSI (0-1 scale)); higher = more stable (slower turnover)
Settings: temperature: 30 C
Description: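 MPS profiling in S. cerevisiae of the yeast C-terminome library: the last 12 aa of each annotated ORF are fused to the C-terminus of a sfGFP-mCherry timer, after a GGGS linker. Cells are FACS-sorted into 8 mCherry/sfGFP bins and deep-sequenced. PSI runs from 0 (unstable) to 1 (stable); wild type and das1Δ backgrounds, two technical replicates each.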

[1] = genetic background: das1 deletion

Sequence	protein stability index [1]	protein stability index (genetic background: wild type)
LENTLKDSGVLQ [GPA2 C-terminal 12 aa]	0.692 ± 0.002	0.717 ± 0.047
LESADKKKDVKA [DUS1 C-terminal 12 aa]	0.692 ± 0.0088	0.713 ± 0.015
LETDQDFLDGLL [YER034W C-terminal 12 aa]	0.708 ± 0.021	0.695 ± 0.0081
LEVTTKPREWVK [HEM13 C-terminal 12 aa]	0.687 ± 0.018	0.712 ± 0.069
LFSSRNTVCAPY [YIL134C-A C-terminal 12 aa]	0.7258 ± 0.0047	0.727 ± 0.018
LFSVLVALLALL [CRH1 C-terminal 12 aa]	0.661 ± 0.037	0.48 ± 0.017
LGSSMVQGRSIR [YPK1 C-terminal 12 aa]	0.71 ± 0.024	0.661 ± 0.0085
LHMNTNRLAGIR [SEC9 C-terminal 12 aa]	0.7133 ± 0.0013	0.718 ± 0.018
LHTLYLRPASAI [SSN8 C-terminal 12 aa]	0.701 ± 0.021	0.669 ± 0.03
LIDVVPRRPLPQ [HAP5 C-terminal 12 aa]	0.734 ± 0.033	0.723 ± 0.03
LIWELGDGQSGQ [INO4 C-terminal 12 aa]	0.7444 ± 0.0017	0.7182 ± 0.0015
LKALANETMSRI [VPS16 C-terminal 12 aa]	0.712 ± 0.011	0.706 ± 0.049
LKRISDIQADSS [PET494 C-terminal 12 aa]	0.692 ± 0.031	0.6987 ± 0.0012
LKSLKKNLTRDR [MTF2 C-terminal 12 aa]	0.722 ± 0.033	0.6605 ± 0.0051
LKSQSLTTGWSL [MNS1 C-terminal 12 aa]	0.7194 ± 0.0048	0.741 ± 0.058
LLCSDLVNGLMQ [SEC21 C-terminal 12 aa]	0.706 ± 0.029	0.707 ± 0.0075
LLDGGDGDEDAV [GON7 C-terminal 12 aa]	0.6942 ± 0.002	0.7 ± 0.036
LLEAFLRKEQKV [YGR174W-A C-terminal 12 aa]	0.596 ± 0.012	0.619 ± 0.019
LLEDQVPVETKA [PYC1 C-terminal 12 aa]	0.551 ± 0.018	0.582 ± 0.0095
LLEKLDIKDKKE [YVC1 C-terminal 12 aa]	0.661 ± 0.018	0.703 ± 0.024
LLISMIAAGILL [GAS2 C-terminal 12 aa]	0.5322 ± 0.0015	0.551 ± 0.017

Sequence	protein stability index [1]	protein stability index (genetic background: wild type)
LLKQLKQGKISV [NOT3 C-terminal 12 aa]	0.669 ± 0.022	0.6481 ± 0.0033
LLLGTVSATNAI [YPL062W C-terminal 12 aa]	0.6878 ± 0.004	0.706 ± 0.038
LLPGNTNLPWTS [ERG12 C-terminal 12 aa]	0.7093 ± 0.0045	0.742 ± 0.08
LLQVYDRVKASM [TOP3 C-terminal 12 aa]	0.67 ± 0.00086	0.5992 ± 0.0013
LLRPPKPPLFCC [YGL123C-A C-terminal 12 aa]	0.6368 ± 0.0044	0.418 ± 0.032
LLRPRSPVQKAQ [KAR4 C-terminal 12 aa]	0.69 ± 0.025	0.658 ± 0.064
LLVEKKDIPSNS [PRM4 C-terminal 12 aa]	0.6965 ± 0.001	0.675 ± 0.013
LLYCNIYVYYRF [KAR1 C-terminal 12 aa]	0.15 ± 0.014	0.161 ± 0.0022
LMRRFVLEFEKQ [SEC6 C-terminal 12 aa]	0.716 ± 0.0098	0.726 ± 0.021
LNEKESTKLFYR [ELP6 C-terminal 12 aa]	0.6871 ± 0.002	0.701 ± 0.013
LNELGEFKVINS [NPR2 C-terminal 12 aa]	0.689 ± 0.014	0.6914 ± 0.0059
LNKKREKKDETE [CSM1 C-terminal 12 aa]	0.707 ± 0.038	0.718 ± 0.055
LNNIKTIIEGPE [XYL2 C-terminal 12 aa]	0.676 ± 0.058	0.716 ± 0.054
LPAEILSNEPLK [YML119W C-terminal 12 aa]	0.688 ± 0.01	0.692 ± 0.071
LPEPNFFRKAAF [AXL1 C-terminal 12 aa]	0.7202 ± 0.0035	0.7 ± 0.015
LPFGCVDDVNRQ [MSK1 C-terminal 12 aa]	0.706 ± 0.05	0.719 ± 0.021
LPKIIKKHQRLS [MRH4 C-terminal 12 aa]	0.724 ± 0.056	0.191 ± 0.0044
LPPGRVFSRVRR [MRPL35 C-terminal 12 aa]	0.683 ± 0.022	0.666 ± 0.012
LPRDSAMSAPDI [YMR085W C-terminal 12 aa]	0.7049 ± 0.001	0.7081 ± 0.0025
LQMVKNAKDLST [CYR1 C-terminal 12 aa]	0.6866 ± 0.0026	0.694 ± 0.016
LQSDKDLQSLLT [CUE1 C-terminal 12 aa]	0.698 ± 0.0011	0.683 ± 0.011

Sequence	protein stability index [1]	protein stability index (genetic background: wild type)
LRSKVKNHAQRH [YLR428C C-terminal 12 aa]	0.714 ± 0.018	0.693 ± 0.021
LRTVASRLKERY [PNO1 C-terminal 12 aa]	0.698 ± 0.013	0.706 ± 0.056
LSEEALSTCCCS [YJL118W C-terminal 12 aa]	0.7528 ± 0.0039	0.738 ± 0.047
LSFADYRKKLLK [SET3 C-terminal 12 aa]	0.70897 ± 0.00015	0.689 ± 0.016
LTVTRWKLQITG [YPR160W-A C-terminal 12 aa]	0.659 ± 0.013	0.4486 ± 0.0032
LVSMTILVSGLI [SHE9 C-terminal 12 aa]	0.246 ± 0.025	0.262 ± 0.02
LWDNKPVEKKRQ [SHH4 C-terminal 12 aa]	0.712 ± 0.023	0.72 ± 0.027
LYEEHQQMLDKQ [IPI3 C-terminal 12 aa]	0.7227 ± 0.0019	0.726 ± 0.088
LYSLPISVPCTS [YDL086C-A C-terminal 12 aa]	0.292 ± 0.013	0.313 ± 0.018
MALLAMVMGVDM [URA2 C-terminal 12 aa]	0.6024 ± 0.0046	0.676 ± 0.13
MDTLEEMFTEEP [PRP42 C-terminal 12 aa]	0.726 ± 0.027	0.7107 ± 0.0067
MIVRFFKKVTFR [CHS1 C-terminal 12 aa]	0.7384 ± 0.0049	0.705 ± 0.008
MIWKWLIEDKKN [MRS2 C-terminal 12 aa]	0.72 ± 0.011	0.69 ± 0.052
MKDFSKNEQKEK [SEY1 C-terminal 12 aa]	0.719 ± 0.037	0.72 ± 0.043
MKHTKKLQLDKV [PKP2 C-terminal 12 aa]	0.69 ± 0.007	0.696 ± 0.024
MNEIDARIFEYK [SPO11 C-terminal 12 aa]	0.764 ± 0.024	0.681 ± 0.013
MQLARRIRGQFI [CSE4 C-terminal 12 aa]	0.691 ± 0.0093	0.646 ± 0.02
MRIRSDMSMMRW [COR1 C-terminal 12 aa]	0.71 ± 0.0094	0.7133 ± 0.0025
MRNNNDTTFKSF [YNL013C C-terminal 12 aa]	0.685 ± 0.015	0.698 ± 0.02
